# Measured values taken from paper PMC2585067.
# Molecular target: EYFP, free protein expressed in HeLa cells (Aequoria victoria)
# Experiment: FRET or BRET
substance,measurement,value
"ECFP, free protein expressed in HeLa cells",cross-bleed corrected FRET normalized to fluorescence of donor,6.2%
